Measurements: PMC4477659

Legend:
Experiment in all cases: filter binding
Details in all cases: Filter binding: 10 mM HEPES, 3 mM MgCl2, 1 mM DTT, 5% glycerol, 100 mM KCl, 0.05 mg/ml tRNA, 5 uM BSA, 30 C 15 min; UV crosslinking: 10 mM HEPES pH 7.9, 3 mM …
[1] = system: PTBP3 AUG11 isoform del1-103 (human), O95758-5
[2] = system: T1, PTBP3 AUG4 isoform del1-31 (human), O95758-5
T1 sequence: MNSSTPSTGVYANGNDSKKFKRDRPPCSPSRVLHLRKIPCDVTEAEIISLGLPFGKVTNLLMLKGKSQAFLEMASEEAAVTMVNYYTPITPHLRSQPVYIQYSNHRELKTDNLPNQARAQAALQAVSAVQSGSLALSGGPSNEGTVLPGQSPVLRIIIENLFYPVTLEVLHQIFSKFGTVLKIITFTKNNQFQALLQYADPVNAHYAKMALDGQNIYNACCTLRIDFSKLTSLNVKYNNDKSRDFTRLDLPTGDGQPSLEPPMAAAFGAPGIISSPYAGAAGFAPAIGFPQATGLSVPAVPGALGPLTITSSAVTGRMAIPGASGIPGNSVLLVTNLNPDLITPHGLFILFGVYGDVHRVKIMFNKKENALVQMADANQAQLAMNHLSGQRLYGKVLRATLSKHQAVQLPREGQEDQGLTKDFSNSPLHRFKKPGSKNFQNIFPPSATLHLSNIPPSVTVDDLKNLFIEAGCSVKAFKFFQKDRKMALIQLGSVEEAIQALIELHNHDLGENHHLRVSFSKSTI

[3] = system: PTBP3 ΔRRM1 (human), O95758-5

| Substance | Kd [1] | Kd [2] | Kd [3] |
| --- | --- | --- | --- |
| CUCUCUCUCUCUCUCUCUCUCUCU [[CUCUCU]4] | 43.7 nM | 34.8 nM | 75.8 nM |
| EMCV IRES | 4.3 nM | 6.4 nM | 6.5 nM |
| MTDH exon 7 RNA | 63.2 nM | 91.5 nM | 91.1 nM |
| PV IRES | 23.4 nM | 44.1 nM | 23.6 nM |
